Assay results reported in PMC4845985.

Experiments:
[1] = target: fluorescein-labelled hypusine-containing human eIF5A^C22A,C38A,C73A,C129A,T142C (human) (UniProt P63241); test: fluorescence polarisation; ribosomal complex titrated into 5-10 nM eIF5A-fl; 20 mM Hepes pH 7.5, 100 mM KOAc, 2.5 mM Mg(OAc)2, 1 mM DTT, 15 μM BSA; 30°C 30 min
[2] = target: human 60S ribosomal subunit (human (endogenous in HeLa)); test: fluorescence polarisation; competition: non-labeled eIF5A titrated (from 5 μM) into preformed ribosome-eIF5A-fl, ribosome 50 nM; same buffer, 30°C 30 min; apparent Ki
[3] = target: human reconstituted 80S ribosome (40S+60S) (human (endogenous in HeLa)); test: as above
[4] = target: human reconstituted 80S ribosome with Met-tRNAi^Met (40S+60S+Met-tRNAi^Met) (human (endogenous in HeLa)); test: as above
[5] = target: yeast pre-assembled 80S ribosome (yeast) (UniProt P26321); test: as above
[6] = target: human ribosomes (complex not specified) (human (endogenous in HeLa)); test: fluorescence polarisation; yeast eIF5A with human ribosomes by anisotropy change; data not shown
[7] = target: fluorescein-labelled hypusine-containing human eIF5A^C22A,C38A,C73A,C129A,T142C (human) (UniProt P63241); test: fluorescence polarisation; yeast 80S titrated into eIF5A-fl in the presence of saturating eEF2 (1 μM); same buffer, 30°C
[8] = target: yeast pre-assembled 80S ribosome (yeast) (UniProt P26321); test: fluorescence polarisation; competition: non-labeled yeast eIF5A titrated into preformed 80S-eIF5A-fl in the presence of saturating eEF2

## human 40S ribosomal subunit (complex)
[1]
  Kd: > 1700 nM

## human 60S ribosomal subunit (complex)
[1]
  Kd: 128 nM

## human reconstituted 80S ribosome (40S+60S) (complex)
[1]
  Kd: 13 nM

## human reconstituted 80S ribosome with Met-tRNAi^Met (40S+60S+Met-tRNAi^Met) (complex)
[1]
  Kd: 7 nM

## non-hypusine-containing human eIF5A^T142C (lysine-containing) (from UniProt P63241 1-154) (natural protein)
[2]
  Ki: 385 nM

## non-labeled hypusine-containing human eIF5A (from UniProt P63241 1-154) (natural protein)
[2]
  Ki: 16 nM
[3]
  Ki: 12 nM
[4]
  Ki: < 5 nM
[5]
  Ki: < 5 nM

## yeast eIF5A tested on human ribosomes (data not shown) (from UniProt P23301 1-157) (natural protein)
[6]
  affinity (constant not named): > 2000 nM

## yeast pre-assembled 80S ribosome (from UniProt P26321 1-297) (complex)
[7]
  Kd in the presence of saturating eEF2: 41 nM
[1]
  Kd: 10 nM

B1: yeast eIF5A^C39A (natural protein)
chain: MSDEEHTFETADAGSSATYPMQCSALRKNGFVVIKSRPAKIVDMSTSKTGKHGHAKVHLVAIDIFTGKKLEDLSPSTHNMEVPVVKRNEYQLLDIDDGFLSLMNMDGDTKDDVKAPEGELGDSLQTAFDEGKDLMVTIISAMGEEAAISFKEAARTD
modifications: hypusine (co-expressed with the modifying enzymes; position not given)
[8]
  Ki in the presence of saturating eEF2: 51 nM
[5]
  Ki: 9 nM

B2: yeast eIF5A^C39A,Q22H,L93F (natural protein)
chain: MSDEEHTFETADAGSSATYPMHCSALRKNGFVVIKSRPAKIVDMSTSKTGKHGHAKVHLVAIDIFTGKKLEDLSPSTHNMEVPVVKRNEYQLFDIDDGFLSLMNMDGDTKDDVKAPEGELGDSLQTAFDEGKDLMVTIISAMGEEAAISFKEAARTD
modifications: hypusine-containing (position not given)
[8]
  Ki in the presence of saturating eEF2: 539 nM
[5]
  Ki: 569 nM

B3: yeast eIF5A^C39A,K56A (natural protein)
chain: MSDEEHTFETADAGSSATYPMQCSALRKNGFVVIKSRPAKIVDMSTSKTGKHGHAAVHLVAIDIFTGKKLEDLSPSTHNMEVPVVKRNEYQLLDIDDGFLSLMNMDGDTKDDVKAPEGELGDSLQTAFDEGKDLMVTIISAMGEEAAISFKEAARTD
modifications: hypusine-containing (position not given)
[8]
  Ki in the presence of saturating eEF2: 454 nM
[5]
  Ki: 189 nM
